{"source": "paper PMC9030890", "molecular_target": "recombinant stabilised complete spike protein (SARS-CoV-2), pre-fusion (SARS-CoV-2) (UniProt P0DTC2)", "experiment": "affinity purification with mass spectrometry"}
{"substance": "human serum albumin (from UniProt P02768 25-609) (natural protein)", "values": [{"measurement": "mean MALDI-ToF peak intensity of HSA eluted from the beads", "value": 1920, "unit": "AU"}]}
